Measurements from patent publication US20250066483A1.
pKd: −log10 of the molar value.

How the values were obtained:
[1] = target: canine PD-L1-His (canine); assay: SPR (Biacore X100), cPD-L1-His captured by anti-histidine antibody on a CM5 chip, canine CD80-Ig as analyte
[2] = target: canine PD-L1-His (canine); assay: SPR (Biacore X100), cPD-L1-His captured by anti-histidine antibody on a CM5 chip, canine PD-1-Ig as analyte

canine CD80-Ig (Fc fusion) was tested. Which pKd [1] did it give?
Its pKd is 7.61.

How did the pKd [2] turn out when canine PD-1-Ig (Fc fusion) was run?
The pKd was 7.60.
